Source: patent US8486893B2, “Treatment of conditions involving demyelination” (Biogen Idec MA Inc., priority 2004, dated 2013)

Key:
spinal cord injury rats = assay: Spinal cord injury (dorsal hemisection T6/T7), intrathecal mini-osmotic pump; assay type: in vivo, rat
Experimental: Spinal cord injury was induced in adult female Long Evans rats (190-210 g; Charles River). A dorsal hemisection was performed at T6/T7, completely interrupting the main dorsomedial and the minor dorsolateral corticospinal tract (CST) components. The cord was sterotaxically transected at a depth of 1.8 mm from the surface using a microscalpel. […] Postoperative care comprised analgesia (Buprenorphine/Buprenex, Reckitt Benckiset Healthcare Ltd., 0.05 mg/kg subcutaneously) every 8-12 hours for 3 days and antibiotic treatment (ampicillin, Bristol Myers Squibb, 100 mg/kg subcutaneously twice daily) for 7 days after surgery. Bladders were expressed manually twice a day for the duration of the study (4 weeks) or until return of function. On completion of the study, rats were anesthetized and trans-cardially perfused with heparinized saline followed by 4% paraformaldehyde (PFA). The spinal cords were removed, embedded in paraffin, and 10 μm sections were cut from for histological analysis.
To quantify apoptotic cell death after SCI, animals were euthanized 3 or 7 days after SCI and stained using anti-activated-Caspase-3 antibody (Cell Signaling Technologies) and TUNEL staining (Promega). The sections were also stained with anti-NeuN antibody (Chemicon) and anti-CC1 antibody (Calbiochem) to identify neurons and oligodendrocytes, respectively.

[1] = test system: co-cultures of dorsal root ganglion (DRG) neurons and oligodendrocytes; assay: In vitro myelination in co-cultures of DRG neurons and oligodendrocytes; assay type: cell-based, rat
Experimental: The role of Sp35 in myelination was examined in vitro by treating co-cultures of dorsal root ganglion (DRG) neurons and oligodendrocytes with Sp35-Fc and testing for myelination by immunohistochemistry and electron microscopy. For these studies, it was necessary to first generate primary cultures of DRG neurons and of oligodendrocytes.
Female Long Evans rat E14-E17 embryonic dorsal root ganglia were cultured as described by Plant et al., J. Neurosci. 22:6083-91 (2002). Dissected DRGs were plated on poly-L-lysine-coated cover slips (100 μg/ml) for 2 weeks in the presence of fluorodeoxyuridine for days 2-6 and days 8-11 in NLA medium containing 1× B27, 100 ng/ml NGF (Invitrogen).
A2B5^+ oligodendrocytes were prepared as described in Example 1, and were harvested by trypsinization.
For coculture studies, A2B5^+ oligodendrocytes were added to DRG neuron drop cultures in the presence or absence of 10 μg/ml Sp35-Fc. The culture medium (Neurobasal medium supplemented with B27 and 100 ng/ml NGF) was changed, and fresh Sp35-Fc was added to the cells every 3 d. To identify changes in myelination, 2-week-old cultures were stained by immunohistochemical staining (“IHC”) for neurofilaments with anti-βIII-tubulin antibody to identify axons, or anti-MBP antibody to identify oligodendrocytes., and 4-week-old cultures were subjected to SDS-PAGE followed by western blot analyses to quantify the MBP. In selected examples, cells were fixed for electron microscopy studies by adding 2.5% gluteraldehyde directly onto the cover slips. Myelinated axons in the 2-week-old cultures were quantified by counting the number of myelinated internode bundles that were derived from single MBP^+ oligodendrocytes. Samples were analyzed in duplicate. Error bars denote individual determinations. P values in all studies were determined using a one-way analysis of variance.
Several peptides containing portions of the Ig domain of Sp35 were examined in vitro, by treating co-cultures of dorsal root ganglion (DRG) neurons and oligodendrocytes with Sp35 Ig peptides and testing for myelination as described in Example 5.
For co-culture studies, A2B5^+ oligodendrocytes were added to DRG neuron drop cultures in the presence or absence of 10 μg/ml Sp35-Ig-Fc (Sp35 amino acids 417-493 fused to Fc). The culture medium (Neurobasal medium supplemented with B27 and 100 ng/ml NGF) was changed, and fresh Sp35-Ig-Fc was added to the cells every 3 d. To identify changes in myelination, 2-week-old cultures were stained by immunohistochemical staining (“IHC”) for neurofilaments with anti-βIII-tubulin antibody to identify axons, or anti-MBP antibody to identify oligodendrocytes and 4-week-old cultures were subjected to SDS-PAGE followed by western blot analyses to quantify the MBP.
We performed experiments to address the relative contributions to the myelination process of Sp35 in DRG neurons as compared to oligodendrocytes. We infected DRG neurons, oligodendrocytes and co-cultures (prepared as described in Example 5) with the FL-Sp35 and DN-Sp35 lentiviral vectors described in Example 1 and performed immunohistochemical straining for myelinated MBP cells after two weeks. A 2-fold increase in MBP levels in co-cultures where both cells express DN-Sp35 and a 2-fold decrease in MBP levels in co-cultures where both cells express FL-Sp35 was observed (FIG. 10G).

B1: Sp35-Fc: extra-cellular portion of human Sp35 (residues 1-532) fused to the hinge and Fc region of human IgG1 (protein)
chain: TGCPPRCECSAQDRAVLCHRKRFVAVPEGIPTETRLLDLGKNRIKTLNQDEFASFPHLEELELNENIVSAVEPGAFNNLFNLRTLGLRSNRLKLIPLGVFTGLSNLTKLDISENKIVILLDYMFQDLYNLKSLEVGDNDLVYISHRAFSGLNSLEQLTLEKCNLTSIPTEALSHLHGLIVLRLRHLNINAIRDYSFKRLYRLKVLEISHWPYLDTMTPNCLYGLNLTSLSITHCNLTAVPYLAVRHLVYLRFLNLSYNPISTIEGSMLHELLRLQEIQLVGGQLAVVEPYAFRGLNYLRVLNVSGNQLTTLEESVFHSVGNLETLILDSNPLACDCRLLWVFRRRWRLNFNRQQPTCATPEFVQGKEFKDFPDVLLPNYFTCRRARIRDRKAQQVFVDEGHTVQFVCRADGDPPPAILWLSPRKHLVSAKSNGRLTVFPDGTLEVRYAQVQDNGTYLCIAANAGGNDSMPAHLHVRSYSPDWPHQPNKTFAFISNQPGE
modifications: left off: a dimerising Fc or GST
notes: extra-cellular portion of human Sp35 (residues 1-532) fused to the hinge and Fc region of human IgG1
- number of activated-Caspase-3-positive neurons and oligodendrocytes versus controls (spinal cord injury rats; 3 days after SCI, 0.25 μl/h of 25 μM intrathecal): significantly smaller
- neuron and oligodendrocyte survival around the lesion site (anti-βIII-tubulin, anti-O4) (spinal cord injury rats; four weeks after SCI): more neurons and oligodendrocytes survived
- expression of MBP by western blot ([1]; 4-week-old treated cocultures, 10 μg/ml for Fc fusions): increased
- confocal microscopy of myelination ([1]; Sp35-Fc treated cocultures): MBP had encapsulated the axons
- electron microscopy of myelination ([1]; cocultures treated 4 weeks, FIG. 10C): Multiple wellformed internodes
- effect on myelination when both cell types overexpress DN-Sp35 ([1]; exogenously added): slight effects
- effect on myelination when either cell type overexpresses DN-Sp35 alone ([1]; exogenously added): further enhanced myelination
- effect on myelination in cocultures overexpressing FL-Sp35 ([1]; exogenously added, FL-Sp35 in either or both cell types): reversed the inhibition of myelination
- axonal myelination (MBP+ myelinated axons) ([1]; treatment for 2 weeks, IHC, FIG. 10A): robust axonal myelination
